Reference: paper PMC6624210 (Nature Communications, 2019)

Legend:
[1] = biological target: recombinant receptor-binding domain of MERS-CoV S glycoprotein (residues 367-606) (MERS-CoV, EMC/2012 (strain used …, UniProt K0BRG7)); test: ELISA; details: both partners purified
[2] = biological target: MERS-CoV spike glycoprotein S1 N-terminal domain (residues 18-353), wild type (MERS-CoV, EMC strain (NTD sequence …, UniProt K9N5Q8)); test: cell-based or functional assay
Sequence of MERS-CoV spike glycoprotein S1 N-terminal domain (residues 18-353), wild type (MERS-CoV, EMC strain (K9N5Q8 18-353): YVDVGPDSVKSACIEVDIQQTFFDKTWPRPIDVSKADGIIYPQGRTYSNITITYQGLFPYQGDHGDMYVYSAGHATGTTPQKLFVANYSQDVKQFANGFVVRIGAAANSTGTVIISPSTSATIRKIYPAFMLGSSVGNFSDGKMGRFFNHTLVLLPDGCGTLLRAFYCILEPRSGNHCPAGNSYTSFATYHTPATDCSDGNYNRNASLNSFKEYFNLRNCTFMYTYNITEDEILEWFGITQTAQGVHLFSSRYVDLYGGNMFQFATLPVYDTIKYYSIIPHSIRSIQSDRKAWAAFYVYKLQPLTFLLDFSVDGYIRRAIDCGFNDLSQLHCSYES

Binder	binding result [1]	IC50 of neutralisation of pseudotyped MERS-CoV on Huh7 cells (luciferase) [2]	IC50 of inhibition of cell entry of pseudotyped MERS-CoV (Huh7 cells) [2]
mouse monoclonal antibody 7D10 (antibody, V domains shown) VH: EVQLVESGAEVVKPGASVKMSCKASGYPFTSYNIHWIKQTPGQGLEWIGAIYPGNGDTSYTQKFKVKATLTSDKSSSTAYMQLSSLTSEDSAVYFCARYGNYPSYAMDYWGQGTSVTVSS VL: DIVMTQSPASLTVSLGQRATISCRASKSVSASGYNYLHWYQQRPGQPPKLLIYLAFNLESGVPARFNGSGSGTDFTLNIHPVEEEDAATYYCQHSRDLPFTFGSGTKLEIK	no binding (tested: 4 μg mL^−1)	~0.18 µg/mL	–
7D10 scFv (VL, triple GGGS linker, VH) (scFv, V domains shown) VH: EVQLVESGAEVVKPGASVKMSCKASGYPFTSYNIHWIKQTPGQGLEWIGAIYPGNGDTSYTQKFKVKATLTSDKSSSTAYMQLSSLTSEDSAVYFCARYGNYPSYAMDYWGQGTSVTVSS VL: DIVMTQSPASLTVSLGQRATISCRASKSVSASGYNYLHWYQQRPGQPPKLLIYLAFNLESGVPARFNGSGSGTDFTLNIHPVEEEDAATYYCQHSRDLPFTFGSGTKLEIK	–	–	0.28 µg/mL
